{"source": "paper PMC2440032", "about": "(2008)", "target": "porcine stomach mucin (porcine)", "assay": "SPR"}
{"binder": "YASPKCFRYPNGVLACT", "note": "[odorranalectin]", "values": [{"measurement": "Kd", "result": 1910, "unit": "nM"}]}
